Experimental data from the nanobody polyreactivity screen of Harvey et al. (2022).

Assay: yeast display, Sf9 membrane polyspecificity reagent, FACS + sequencing; frameworks hold sequencing errors
Method in brief: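 Sorting gates, low and high (top ~1%), were placed on anti-HA fluorescence to track expression and on streptavidin fluorescence to track reagent binding. A clone's polyreactivity label is taken from the gate it came out of. The reagent was 10% biotinylated, detergent-solubilized Sf9 membrane, applied for 1 hour at 4 °C to galactose-induced yeast display cells.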

| Sequence | polyreactivity (PSR sort gate) |
| --- | --- |
| QVHLVESGGGLVQAGGSLRLSCAATGRTFRSYAMGWYRQAPGKEREFVAAISRSGASTRYPDSVKGRFTISRDIAKTTVYLQMNSLKPEVTAVYYCAAVWPDVRGYDYWGQGTEVTVSS | high polyreactivity |
| QVHLVESGGGLVQAGGSLRLSCAATGSTFAHNDMGWYRQAPGKERELVAAITWGDSSTYYADSVKGRFTISRDNAKNTVYLQMNSLKPEDTAVYYCAKDYGFTGYGYWGQGTQVTVSS | low polyreactivity |
| QVHLVESGGGLVQAGGSLRLSCAGSGRTFRYYAMGWYGQAPGKERELVAAISVRTGSTSDADSVKGRFTISRDNAKNTVYLQMNSLNPEDTAVYYCAATSRYFQPPGYGGGRIGYGYWGQGTQVTVSS | high polyreactivity |
| QVHLVESGGGLVQAGGSLRLSCASSGSIFRYNTMGWYRQAPGKERELVAAIRGDGSTNYADSVKGRFTISRDNAKNTVYLQMNSLKPEDTAVYYCAVNLRGYRYAYDYWGQGTKVTVSS | low polyreactivity |
| QVHLVESGGGLVQAGGSLRLSCASTGIIFLRNAMGWYRQAHGKERELVAAISYRGGSTYYADSVKGRFTISRDNANNTVYLQMNSLKPEDTAVYYCNDLYTSLYDYWGQGTQVTVSS | high polyreactivity |
| QVHLVESGGGLVQAGGSLRLSCDASGLTLWTYAMGWSRQAAGKEMELVARIRSGGSTYYADSVKGRFTFSRDNAKNTVYLQMNSLKPEDTAVYSCNAKRYGRWAAAGRVGYDYWGQGTQVTVSS | high polyreactivity |
| QVHLVESGGGLVQAGGSLRLSCDASGSIFASNTMGWYRQEPGQERELVAGITKIGSSTYYADSVKGRFTISRDHAKNTVYLKMNSLTPEDTAVYYCNAYGPNIYSSRYEYWGQGTQVTVSS | low polyreactivity |
| QVHLVESGGGLVQAGGSLRLSCSASGSTFYIYTMGCYRQAPGKARELVAAISSSGGSTYYADSVKGRFTISRDNAKNTVYLQMNILKPEDTAVYYCAADPWVRLEYDYWGQGTQVTVSS | low polyreactivity |
| QVHLVESGGGLVQAGGSLRLSCSASGSTFYRYAMGWYRQAPGKERELVAAINTGGSTNYADSVKGRFTISRDNAKNTVYLQMNSLKPEDTAVYYCAARFQYYRKYDYWGQGTQVTVSS | low polyreactivity |
| QVHLVESGGGLVQAGGSLRLSCTASGRTFKYNSMGSSRQEPGKERELVAAISSRGGSTYYADSVKGRFTISRDNAKNTVYLQMNSLKPEDTAVYYCAAQFTTRYDWGQGTQVTVSS | high polyreactivity |
| QVHLVESGGGLVQAGGSLRLSFAASGLIFSAYAMAWYRQAPGKERELVAAISSSGGRTYYADSVKGRFTISRDNAKNTVYLQMNSLKPEDTAVYYGNAASKNSGRYAYQNYDYWGQGTQVTVSS | high polyreactivity |
| QVHLVESGGGLVQAGGSLRLSFAASGRIFWDNAMGWYRQAHGKERELVAAISDSVVITYYADSVKGRFTISRDNAKNTVYLQMNSLKPEDTAVYYCAADKRGTVYLSSFWMDYWGQGTQVTVSS | low polyreactivity |
| QVHLVESGGGLVQAGGSLRLSFAASGRISRIYTMVWYRPAPGKERELVAAITSRGGSTYYADSLKGRFTISRDNAKNTVYFQMNSLNPEDTAVYYCAAGTFWWGYRSKGDEYDYWGQGTKVTVSS | high polyreactivity |
| QVHLVESGGGLVQAGGSLRLSFDASGRIFYRNVMGWYRQAPGKERELVATITWGGSTYYADSVKGRFTISRYNEKNTVYLQMNSLKPEDTAVYYCATVRSRLFGQYYYWGQGTQVTVTS | high polyreactivity |
| QVHLVESGGGLVQAGGSLRLSGAASGLTFSGNAMGWYRQAPGKERELVAAISWNGGRTYYADSVKGRFTISRDNAKNTVYLQMNSLKPEDTAVYYCAAEVRYSTYEDYDYWGQGTEVTVSS | low polyreactivity |
| QVHLVESGGGLVQAGGSLRLSGAASGRIFFSNAMGWYRQAPGKEWELVAAISTSGGSTYYADSVKGRFTISRENAKNTVYLQMNSLKPEDTAVYYCNAVYYTSYSGYHFVYEYDYWGQGTQVTVSS | low polyreactivity |
| QVHLVESGGGLVQAGGSLRLSLAASGSIFHPYAMGWYRQAPGKERELVAAISKSGGNTYYADSVKGRFTISRDNAKNNVYLQMNSLKPVDPEVYYCAALDYWGQGTKVTVSS | low polyreactivity |
| QVHLVESGGGLVQAGGSLRLSSAASGITFWHNTMGWYRQAPGKERELVAAISWTGGRTYYADSVKGRFTISRDNAKNTVYLQMNSLKPEDTAVFSCAADFSWTPCGNYDSWGQGTQVTVSS | low polyreactivity |
| QVHLVESGGGLVQAGGSLRLSSAASGSTFLYYGMGWYRQAPGTERELVATITWRGGRTYYADSVKGRFTISRDNAKNSVYLQMNSLNPEDTAVYYCAARVVGSYLKPYPYGLYYWGQGTQVTVSS | high polyreactivity |
| QVHLVESGGGLVQAGGSLRLSSAAYGGIFDDNAMGWYRQAHGKERELVAAISSSGGSTYYADSVKGRFTISRDNAKYTVYLQMNSLKPEDTAVYYCNADRRRRFGYWGQGTQVNVSS | high polyreactivity |
| QVHLVESGGGLVQAGGSLRLSSPASGRIFYRKALGWSRQETGKERELVAAISSSGGSTYYADSVKGRFTISRDNAKNTVYLQMNSLKPEDTEVYYCNKAVWGRSKYDFCGQGTQVTVSS | high polyreactivity |
| QVHLVESGGGLVQAGGSLRLTCAASGRTFPGYDMGWYRQAPGKERELVAAISWSGTSTYYADSVKGRFTISRDNSKNTVYLQMNSLIPEDTAVYYCAARVKGQWNTYEYWGQGTQVTVSS | high polyreactivity |

| Sequence | polyreactivity (PSR sort gate) |
| --- | --- |
| QVHLVESGGGLVQAGGSLRLTCAASGSIFLYYAMGWYRQAPGKERELVAGIRRGGRTNYADSVKGRFTISRDNAKNTVYLQMNSLKPEDTAVYYCAKGGYWGQGTLVTVSS | high polyreactivity |
| QVHLVESGGGLVQAGGSLRLTCAASGSTFDINAMRWYRQAPGKERELVASITFSGGSTYYADSVKGRFTISRDNAKNTVYLQMNSLKPEDTAVYYCAADSSGEYPGGYWGQGTQVTVSS | low polyreactivity |
| QVHLVESGGGLVQAGGSLRVSCDASGILYTVYAMGWYRQAPGKQRELVAAITWSGGSTYYADSVKGRFTISRDNAKNTVYLQMNSLKPEDTEVYYCNTVGRVWDVETDGDYDYWGQGTQVTVSS | low polyreactivity |
| QVHLVESGGGLVQAGGSLSLSCAASGSIFRYYAMGWYRQAPGKEREFVAAITRGGGRTYYADSVKGRFTISRDTAKHTVYLQLNSLKPEDTAVYSCAAGPPRTRYRNARFDYWGQGTQVTVSS | high polyreactivity |
| QVHLVESGGGLVQAGGTLRLSCAASGFTFRIYAMGWYIQAPGKERELVATISWSGTSTYYADSVKGRFTISRDNAKNTVYLQMNSLKPEDTAVYYCAKDGVSVYWLNKYYYWGQGTQVTVSS | low polyreactivity |
| QVHLVESGGGLVQAGGTLRLSCYASGRTIDTNAMGWYRQPPGKEREMVATINCSGGRTHYADSVKGRFTISRDNAKNTVYLQMNSLKPEDTAVFYCAKASSRRYWTIRDCDYWGQGTQVTVSS | low polyreactivity |
| QVHLVESGGGLVQAGRSLRISCAASGRTFYGYAMGWYRQAPGKERELVAAITNGGRTYYADSVKGRFTISRDNAKNTVYLQMNSLKPEDTAVYYCAAGTGRGRSTLGSYYWGQCTQVTVSS | high polyreactivity |
| QVHLVESGGGLVQAGVSLRLSCAASGRIFEENAMGWYRQAPGKERELVAAITYSGGSTYYADSVKGRFTISRDNAKNTVYLQMNSLKPEDTAVYYCAATVDLVYIDYDYWGQGTQVTVSS | low polyreactivity |
| QVHLVESGGGLVQARGSLRLSCAASGSIFRNYAMGWYRQAPGKERELLATISGRGGRTYYADSVKGRFTISRDNAKNTVYLQMNSLKPEDTAVYYCAARGTLGKYSTATVYWGKGTQVTVSS | high polyreactivity |
| QVHLVESGGGLVQEGGSLRISCAASGGTFHSNDMGWYRQAPGKESELVASINWSGGSTYYSDSVKGRFTISRDNAKNTVYLQMNRLKPEDNAVYYCAARESYPGYGYDHWGQGTQVTVSS | low polyreactivity |
| QVHLVESGGGLVQEGGSLRLSCAASGSIFQYYAMGWYIQAPGKERELVAAISWRSGRTYYADSVKGRFTISRDNAKNTVYLQMNSLKPEDTAVYYCIRGYARDYDYWGQGTQVTVSS | high polyreactivity |
| QVHLVESGGGLVQSGGSLRLRCAASGSTFYGYTKAWYRQAPGKERELVAAINWSGTRTYYADSVNGRFTISRDTAKNTVYLQMNSLKPEDTAVYYCAAERYYWGLGTQVTVSS | high polyreactivity |
| QVHLVESGGGLVQSRGSLRLSCAASGNIFGNNAMGWYRLAPGKERELVAAISSSGTSTYYADSVKGRFTISRDNAKNTVYLQMNSLKPEDTEVYYCNADPLPYDGYYDYDYWGQGTQVTVSS | low polyreactivity |
| QVHLVESGGRLVQAGVSLRLSCAASGRIFSNYAMGWYIQAPGKERELVAAISRGGGRTFYADSVKGRFTISRDNAKNTVYLQMNSLKPEDTAVYYCATRSYYVKGDYWGQGTQVTVSS | high polyreactivity |
| QVHLVESGGVLVQAGGRLRLSCAAYGNIIGFNAMGWYRQAPGTERELVAAINSGGSTYYPDSVKGRFTISRDNAKNSVYLQMNSLKPEDSAVYYCAARVRIRGGGYDDWGQGTQVTVSS | high polyreactivity |
| QVHLVESGGVLVQAGGSLLLSCGACGSIFAQYTMGWYRNAPGKDRELVAAISSSGGSTYYADSVKGRFTISRDNANNTFYLQMNSLKAEDTAVYYCAARGAHYLRSGDHWGQGTQVNVSS | low polyreactivity |
| QVHLVESGGVLVQAGGSLRLSCAASGSIYESYVMGWYRQAPRKERELVASISSGGSTYYADSVKGRFTISRDNAKNTVYFQNNSLKQEDTAGYYCAANYDGGYLDYEAGYRLEYDFWGQGTQVTVSS | low polyreactivity |
| QVHLVESGRGLVQAGGSLSVTCSASGFTFYWYTMGWYRRAPGKERELVAAISRRGGSTSYADSVKGRFTISRDNAKNTVYLKMKILKPDDTAVYYCAKTPGWTDYDYWGQGTQVTVSS | high polyreactivity |
| QVHLVESGVGLDQAGGSLRLSCASTGYIFETYAMGWYRPATGKERELVAAISRGASTYYADSVKGRFTISRDNAQNTVSLQLNSLKQEDTAVYYCAPTRRSWHRYGYWGQGTQVTVSS | low polyreactivity |
| QVHLVESGVGLVQAGCSLRLSCAASGIIFLTNAMGWYRQAPGKERELVAAITAIGGSTYYADSVKGRFTISRDNAKNTVYLQINSLKPEDTAVYYCAADFSYVYYLYDYWGQGTQVTVSS | low polyreactivity |
| QVHLVESGVGLVQAGGSLRLSCAASGYIFPYYTMGWYRQAPGKERELVAAITIGGSTYYADSVKGRFTISRDNAKNTVYLQMNSLKPEDTAVYYCAARSRYYDTRFDYWGQGTQVTVSS | low polyreactivity |
